Biological target: GST-FoxO1 DBD S218D (Homo sapiens, UniProt Q12778 151-266, S218D)
Assay: EMSA; 1 µM protein, 1 nM DNA, 1 ng/mL poly dI-dC; 20 mM Tris pH 8.0, 50 mM KCl, 5% glycerol, 2 mM DTT, 0.2 mM EDTA, 2 mM MgCl2, 0.1 mg/mL BSA, 1 ng/mL poly dI-dC; RT 30 min; 6% gel in 0.5X TBE at 4 °C
Settings: protein: recombinant; tags: GST (pDEST15, N-terminal); blunt

Chain of GST-FoxO1 DBD S218D (Q12778 151-266 S218D): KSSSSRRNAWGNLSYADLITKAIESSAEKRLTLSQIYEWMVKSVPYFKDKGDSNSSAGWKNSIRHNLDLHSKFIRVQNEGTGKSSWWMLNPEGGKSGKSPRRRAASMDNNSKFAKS

B1: FoxO DBE duplex (dsDNA)
DNA 1: CAAAATGTAAACAAGA
DNA 2: TCTTGTTTACATTTTG
  binding result: no binding
